What was measured:
Format in all cases: cell-based
[1] = system: microbial load of hummus spread; assay: Shelf life of canned hummus spread at natural pH 6.5; settings: pH 6.5, stored at 6° C in an open container
Protocol: In a further related example, the ability of psoriasin to extend the shelf life of a canned hummus spread preparation was compared with that of nisin, a commonly used preservative at pH 6.5, the natural pH of the preparation. As described above, no antibiotics were added and there was no addition of mold, yeast or bacteria to the hummus spread. The hummus spread was split into 3 groups: i) untreated, ii) nisin-treated, and iii) psoriasin-treated. The hummus spread was stored at 6° C. in an open container. Total CFU count was determined by plating on LB and PDA agar petri dishes.

[2] = system: microbial growth in bread/rolls; assay: Microbial growth in baked bread/rolls stored at room temperature; settings: 0.3% psoriasin admixed with dough before baking, after 10 days at room temperature
Protocol: Bread or roll dough prepared with 150 ml PBS, 0.3% psoriasin, (1.5 g protein in 150 ml DDW) or 0.3% calcium propionate (1.5 g calcium propionate in 150 ml DDW) was baked in a bread maker according to the manufacturer protocol using the following recipe: 180 ml water (or 150 ml PBS+30 ml water), 1 teaspoon of salt, 2 spoons of sugar, 2 spoons of oil, 300 g of flour, and 1 teaspoon of yeast. Following baking, the bread was sliced, each slice/roll was weighed and kept in a separate small smasher bag until analysis.
Bread/rolls were stored at room temperature. Each day, a roll/slice of bread from each group was mixed with autoclaved 1×PBS at a weight ratio of 1:10 to the weighted piece of bread in the bag. The bread was then smashed in a smasher at normal speed for 120 seconds. 10 mL from the smashed bread was removed, vortexed, and diluted with autoclaved 1×PBS as necessary. Samples were plated on both PDA and LB plates and incubated at 30° C. and 37° C., respectively. All samples were performed in duplicate.

[3] = system: microbial load of plant-based ground meat (soy protein); assay: Microbial load of plant-based ground meat (soy protein) with psoriasin and/or nisin; settings: 0.65% w/w His-psoriasin; 1.5 mg nisin; 5 g soy protein in 7.5 ml PBS
Protocol: The ability of psoriasin to inhibit bacterial and fungal growth, with and without nisin was evaluated. Commercial plant-based ground meat (soy protein) was divided into 4 groups, each containing 5 grams of soy protein. The sample designated as “non-treated” contained 5 g of soy protein in 7.5 ml of PBS×1. The sample designated as “psoriasin” contained 5 g of soy protein in 7.5 ml of PBS×1 with 0.65% w/w of His-psoriasin. The sample designated as “nisin” contained 5 g of soy protein in 7.5 ml PBS×1 with 1.5 mg of nisin. The combined treatment group (“psoriasin+nisin”) contained 5 g of soy protein with both his-psoriasin and nisin at the same concentrations. The samples were incubated in […], and the microbial load was evaluated by seeding the different test groups on LB-agarose plates containing no antibiotics or on YAG-agarose plates with the antibiotics.

B1: psoriasin: Recombinant human psoriasin (S100a7) containing a histidine tag, amino acid sequence SEQ ID NO: 11, expression vector pET-28a (protein, listed as Homo sapiens)
chain: MSNTQAERSIIGMIDMFHKYTRRDDKIEKPSLLTMMKENFPNFLSACDKKGTNYLADVFEKKDKNEDKKIDFSEFLSLLGDIATDYHKQSHGAAPCSGGSQ
Q: With B1 as the molecule, how does the “time without microbial growth in hummus spread” value [1] read?
A: over 32 days

Q: And the “microbial growth in rolls” value [2]?
A: no microbial growth was detected

Q: And the “total microbial count on LB-agarose plates containing no antibiotics” value [3]?
A: inhibited microbial growth

Q: What about the “total yeast/mold count on YAG plates with antibiotics” value [3] of the same molecule?
A: inhibited fungal/yeast growth

— patent US20260231968A1, “AN ECO-FRIENDLY, SUSTAINABLE FOOD PRESERVATIVE” (priority 2023, published 2026)
